Key:
Assay type in all cases: biochemical
[1] = ω-transaminase enzyme activity assay, forward direction (adipate semialdehyde to 6-aminohexanoate); settings: cell free extract, 10 mM adipate semialdehyde, 10 mM L-alanine, pH 7.5, 25° C., 4 h, RP-HPLC, against the empty vector control
Description: (§1) A nucleotide sequence encoding a His-tag was added to the nucleic acid sequences from Chromobacterium violaceum, Pseudomonas aeruginosa, Pseudomonas syringae, Rhodobacter sphaeroides, and Vibrio fluvialis encoding the ω-transaminases of SEQ ID NOs: 7, 8, 9, 10 and 12, respectively (see FIG. 6) such that N-terminal HIS tagged ω-transaminases could be produced. Each of the resulting modified genes was cloned into a pET21a expression vector under control of the T7 promoter and each expression vector was transformed into a BL21[DE3] E. coli host. The resulting recombinant E. coli strains were cultivated at 37° C. in a 250 mL shake flask culture containing 50 mL LB media and antibiotic selection pressure, with shaking at 230 rpm. Each culture was induced overnight at 16° C. using 1 mM IPTG.
(§2) The pellet from each induced shake flask culture was harvested via centrifugation. Each pellet was resuspended and lysed via sonication. The cell debris was separated from the supernatant via centrifugation and the cell free extract was used immediately in enzyme activity assays.
Enzyme activity in the forward direction (i.e., adipate semialdehyde to 6-aminohexanoate) was confirmed for the transaminases of SEQ ID NO 7, SEQ ID NO 8, SEQ ID NO 9, SEQ ID NO 10 and SEQ ID NO 12. Enzyme activity assays were performed in a buffer composed of a final concentration of 50 mM HEPES buffer (pH=7.5), 10 mM adipate semialdehyde, 10 mM L-alanine and 100 μM pyridoxyl 5′ phosphate. Each enzyme activity assay reaction was initiated by adding a cell free extract of the ω-transaminase gene product or the empty vector control to the assay buffer containing the adipate semialdehyde and incubated at 25° C. for 4 h, with shaking at 250 rpm. The formation of pyruvate was quantified via RP-HPLC.

[2] = ω-transaminase enzyme activity assay, reverse direction (6-aminohexanoate to adipate semialdehyde); settings: cell free extract, 10 mM 6-aminohexanoate, 10 mM pyruvate, pH 7.5, 25° C., 24 h, RP-HPLC, against the empty vector control
Description: as §1, §2
Enzyme activity assays in the reverse direction (i.e., 6-aminohexanoate to adipate semialdehyde) were performed in a buffer composed of a final concentration of 50 mM HEPES buffer (pH=7.5), 10 mM 6-aminohexanoate, 10 mM pyruvate and 100 μM pyridoxyl 5′ phosphate. Each enzyme activity assay reaction was initiated by adding cell free extract of the ω-transaminase gene product or the empty vector control to the assay buffer containing the 6-aminohexanoate and incubated at 25° C. for 24 h, with shaking at 250 rpm. The formation of L-alanine from pyruvate was quantified via RP-HPLC.

[3] = carboxylate reductase enzyme activity assay (adipate semialdehyde to hexanedial); settings: purified enzyme enhanced by the gene product of sfp, 2 mM adipate semialdehyde, pH 7.5, room temperature, 20 min, against the empty vector control
Description: The N-terminal His-tagged carboxylate reductase of SEQ ID NO 6 (see Example 2 and FIG. 6) was assayed using adipate semialdehyde as substrate. The enzyme activity assay was performed in triplicate in a buffer composed of a final concentration of 50 mM HEPES buffer (pH=7.5), 2 mM adipate semialdehyde, 10 mM MgCl2, 1 mM ATP and 1 mM NADPH. The enzyme activity assay reaction was initiated by adding purified carboxylate reductase and phosphopantetheine transferase or the empty vector control to the assay buffer containing the adipate semialdehyde and then incubated at room temperature for 20 min. The consumption of NADPH was monitored by absorbance at 340 nm.

Molecule | ω-transaminase activity for converting adipate semialdehyde to 6-aminohexanoate (formation of pyruvate from L-alanine) [1] | ω-transaminase activity for converting 6-aminohexanoate to adipate semialdehyde (formation of L-alanine from pyruvate) [2] | carboxylate reductase activity for converting adipate semialdehyde to hexanedial (consumption of NADPH, absorbance at 340 nm) [3]
SEQ ID NO 10: Rhodobacter sphaeroides ω-transaminase, Genbank Accession No. ABA81135.1, N-terminal HIS tagged | accepted adipate semialdehyde as substrate | accepted 6-aminohexanoate as substrate | 
SEQ ID NO 8: Pseudomonas aeruginosa ω-transaminase, Genbank Accession No. AAG08191.1, N-terminal HIS tagged (protein, listed as Pseudomonas aeruginosa, N-terminal His tag) MNARLHATSPLGDADLVRADQAHYMHGYHVFDDHRVNGSLNIAAGDGAYIYDTAGNRYLDAVGGMWCTNIGLGREEMARTVAEQTRLLAYSNPFCDMANPRAIELCRKLAELAPGDLDHVFLTTGGSTAVDTAIRLMHYYQNCRGKRAKKHVITRINAYHGSTFLGMSLGGKSADRPAEFDFLDERIHHLACPYYYRAPEGLGEAEFLDGLVDEFERKILELGADRVGAFISEPVFGSGGVIVPPAGYHRRMWELCQRYDVLYISDEVVTSFGRLGHFFASQAVFGVQPDIILTAKGLTSGYQPLGACIFSRRIWEVIAEPDKGRCFSHGFTYSGHPVACAAALKNIEIIEREGLLAHADEVGRYFEERLQSLRDLPIVGDVRGMRFMACVEFVADKASKALFPESLNIGEWVHLRAQKRGLLVRPIVHLNVMSPPLILTREQVDTVVRVLRESIEETVEDLVRAGHR | accepted adipate semialdehyde as substrate |  | 
SEQ ID NO 7: Chromobacterium violaceum ω-transaminase, Genbank Accession No. AAQ59697.1, N-terminal HIS tagged (protein, listed as Chromobacterium violaceum, N-terminal His tag) MQKQRTTSQWRELDAAHHLHPFTDTASLNQAGARVMTRGEGVYLWDSEGNKIIDGMAGLWCVNVGYGRKDFAEAARRQMEELPFYNTFFKTTHPAVVELSSLLAEVTPAGFDRVFYTNSGSESVDTMIRMVRRYWDVQGKPEKKTLIGRWNGYHGSTIGGASLGGMKYMHEQGDLPIPGMAHIEQPWWYKHGKDMTPDEFGVVAARWLEEKILEIGADKVAAFVGEPIQGAGGVIVPPATYWPEIERICRKYDVLLVADEVICGFGRTGEWFGHQHFGFQPDLFTAAKGLSSGYLPIGAVFVGKRVAEGLIAGGDFNHGFTYSGHPVCAAVAHANVAALRDEGIVQRVKDDIGPYMQKRWRETFSRFEHVDDVRGVGMVQAFTLVKNKAKRELFPDFGEIGTLCRDIFFRNNLIMRACGDHIVSAPPLVMTRAEVDEMLAVAERCLEEFEQTLKARGLA | accepted adipate semialdehyde as substrate | accepted 6-aminohexanoate as substrate | 
SEQ ID NO 9: Pseudomonas syringae ω-transaminase, Genbank Accession No. AAY39893.1, N-terminal HIS tagged (protein, listed as Pseudomonas syringae, N-terminal His tag) MSANNPQTLEWQALSSEHHLAPFSDYKQLKEKGPRIITRAEGVYLWDSEGNKILDGMSGLWCVAIGYGREELADAASKQMRELPYYNLFFQTAHPPVLELAKAISDIAPEGMNHVFFTGSGSEGNDTMLRMVRHYWALKGQPNKKTIISRVNGYHGSTVAGASLGGMTYMHEQGDLPIPGVVHIPQPYWFGEGGDMTPDEFGIWAAEQLEKKILELGVENVGAFIAEPIQGAGGVIVPPDSYWPKIKEILSRYDILFAADEVICGFGRTSEWFGSDFYGLRPDMMTIAKGLTSGYVPMGGLIVRDEIVAVLNEGGDFNHGFTYSGHPVAAAVALENIRILREEKIVERVRSETAPYLQKRLRELSDHPLVGEVRGVGLLGAIELVKDKTTRERYTDKGAGMICRTFCFDNGLIMRAVGDTMIIAPPLVISFAQIDELVEKARTCLDLTLAVLQG | accepted adipate semialdehyde as substrate | accepted 6-aminohexanoate as substrate | 
SEQ ID NO 12: Vibrio fluvialis ω-transaminase, Genbank Accession No. AEA39183.1, N-terminal HIS tagged (protein, listed as Vibrio fluvialis, N-terminal His tag) MNKPQSWEARAETYSLYGFTDMPSLHQRGTVVVTHGEGPYIVDVNGRRYLDANSGLWNMVAGFDHKGLIDAAKAQYERFPGYHAFFGRMSDQTVMLSEKLVEVSPFDSGRVFYTNSGSEANDTMVKMLWFLHAAEGKPQKRKILTRWNAYHGVTAVSASMTGKPYNSVFGLPLPGFVHLTCPHYWRYGEEGETEEQFVARLARELEETIQREGADTIAGFFAEPVMGAGGVIPPAKGYFQAILPILRKYDIPVISDEVICGFGRTGNTWGCVTYDFTPDAIISSKNLTAGFFPMGAVILGPELSKRLETAIEAIEEFPHGFTASGHPVGCAIALKAIDVVMNEGLAENVRRLAPRFEERLKHIAERPNIGEYRGIGFMWALEAVKDKASKTPFDGNLSVSERIANTCTDLGLICRPLGQSVVLCPPFILTEAQMDEMFDKLEKALDKVFAEVA | accepted adipate semialdehyde as substrate | accepted 6-aminohexanoate as substrate | 
SEQ ID NO 6: Segniliparus rotundus carboxylate reductase, Genbank Accession No. ADG98140.1, N-terminal HIS tagged (protein, listed as Segniliparus rotundus, N-terminal His tag) MTQSHTQGPQASAAHSRLARRAAELLATDPQAAATLPDPEVVRQATRPGLRLAERVDAILSGYADRPALGQRSFQTVKDPITGRSSVELLPTFDTITYRELRERATAIASDLAHHPQAPAKPGDFLASIGFISVDYVAIDIAGVFAGLTAVPLQTGATLATLTAITAETAPTLFAASIEHLPTAVDAVLATPSVRRLLVFDYRAGSDEDREAVEAAKRKIADAGSSVLVDVLDEVIARGKSAPKAPLPPATDAGDDSLSLLIYTSGSTGTPKGAMYPERNVAHFWGGVWAAAFDEDAAPPVPAINITFLPLSHVASRLSLMPTLARGGLMHFVAKSDLSTLFEDLKLARPTNLFLVPRVVEMLYQHYQSELDRRGVQDGTREAEAVKDDLRTGLLGGRILTAGFGSAPLSAELAGFIESLLQIHLVDGYGSTEAGPVWRDGYLVKPPVTDYKLIDVPELGYFSTDSPHPRGELAIKTQTILPGYYKRPETTAEVFDEDGFYLTGDVVAQIGPEQFAYVDRRKNVLKLSQGEFVTLAKLEAAYSSSPLVRQLFVYGSSERSYLLAVIVPTPDALKKFGVGEAAKAALGESLQKIARDEGLQSYEVPRDFIIETDPFTVENGLLSDARKSLRPKLKEHYGERLEAMYKELADGQANELRDIRRGVQQRPTLETVRRAAAAMLGASAAEIKPDAHFTDLGGDSLSALTFSNFLHDLFEVDVPVGVIVSAANTLGSVAEHIDAQLAGGRARPTFATVHGKGSTTIKASDLTLDKFIDEQTLEAAKHLPKPADPPRTVLLTGANGWLGRFLALEWLERLAPAGGKLITIVRGKDAAQAKARLDAAYESGDPKLAGHYQDLAATTLEVLAGDFSEPRLGLDEATWNRLADEVDFISHPGALVNHVLPYNQLFGPNVAGVAEIIKLAITTRIKPVTYLSTVAVAAGVEPSALDEDGDIRTVSAERSVDEGYANGYGNSKWGGEVLLREAHDRTGLPVRVFRSDMILAHQKYTGQVNATDQFTRLVQSLLATGLAPKSFYELDAQGNRQRAHYDGIPVDFTAESITTLGGDGLEGYRSYNVFNPHRDGVGLDEFVDWLIEAGHPITRIDDYDQWLSRFETSLRGLPESKRQASVLPLLHAFARPGPAVDGSPFRNTVFRTDVQKAKIGAEHDIPHLGKALVLKYADDIKQLGLL |  |  | accepted adipate semialdehyde as substrate

— patent US20160152957A1, “Methods of Producing 6-Carbon Monomers From 8-Carbon Compounds” (INVISTA North America S.á.r.l., priority 2014, published 2016)
